Experimental findings from patent US20250011363A1, “OPTIMIZED SHORTENED PEPTIDE THAT BINDS TO ACETYLCHOLINE RECEPTOR, AND USE THEREOF” (SKINMED CO., LTD., priority 2021, published 2025) are described below.

The experiment concerns the target acetylcholine receptor. In words: SPR, receptor immobilised on chip, peptide at 10 uM.

B1: 6mer-2-922 (peptide)
peptide: KDNVRR
Molecule B1 had a Binding affinity (RU) of 41 RU.

B2: 6mer-2-933 (peptide)
peptide: RYSMKR
For the molecule B2, the Binding affinity (RU) amounted to 34 RU.

B3: 6mer-2-912 (peptide)
peptide: RAPIRR
In the case of B3, the Binding affinity (RU) stood at 27 RU.

B4: 6mer-2-901 (peptide)
peptide: RYWDRK
As for B4, the Binding affinity (RU) was 34 RU.

B5: 6mer-2-916 (peptide)
peptide: KTTEKR
As for B5, the Binding affinity (RU) was determined as 22 RU.

B6: 6mer-2-907 (peptide)
peptide: RTMNRR
B6 gave a Binding affinity (RU) of 25 RU.

B7: 6mer-2-944 (peptide)
peptide: KPEDKK
Turning to B7, the Binding affinity (RU) turned out to be 35 RU.

B8: 6mer-2-945 (peptide)
peptide: KKCERK
Consider B8, for which the Binding affinity (RU) worked out at 42 RU.

B9: 6mer-2-948 (peptide)
peptide: RPPFRR
As for B9, the Binding affinity (RU) worked out at 28 RU.

B10: 6mer-2-915 (peptide)
peptide: KNCWKR
B10 registered a Binding affinity (RU) of 29 RU.

B11: 6mer-2-917 (peptide)
peptide: RFCWRK
Turning to B11, the Binding affinity (RU) was 23 RU.

B12: 6mer-2-909 (peptide)
peptide: RCNPRR
Regarding B12, the Binding affinity (RU) came out at 42 RU.

B13: 6mer-2-919 (peptide)
peptide: KAKHKR
As for B13, the Binding affinity (RU) came to 27 RU.

B14: 6mer-2-913 (peptide)
peptide: KFKNRR
As to B14, the Binding affinity (RU) is 25 RU.

B15: 6mer-2-911 (peptide)
peptide: KMSGKR
B15 displayed a Binding affinity (RU) of 21 RU.

B16: 6mer-2-940 (peptide)
peptide: RNENKK
The molecule B16 registered a Binding affinity (RU) of 41 RU.

B17: 6mer-2-902 (peptide)
peptide: KPDVRK
The molecule B17 showed a Binding affinity (RU) of 26 RU.

B18: 6mer-2-936 (peptide)
peptide: KPPAKK
B18 gave a Binding affinity (RU) of 21 RU.

B19: 6mer-2-930 (peptide)
peptide: RTWIKR
As to B19, the Binding affinity (RU) was determined as 37 RU.

B20: 6mer-2-920 (peptide)
peptide: RMTIKK
The molecule B20 had a Binding affinity (RU) of 26 RU.

B21: 6mer-2-934 (peptide)
peptide: KYKDRR
B21: the Binding affinity (RU) is 26 RU.

B22: 6mer-2-932 (peptide)
peptide: RIPWRR
Take B22: the Binding affinity (RU) was 35 RU.

B23: 6mer-2-900 (peptide)
peptide: RFSAKK
For the molecule B23, the Binding affinity (RU) is 11 RU.

B24: 6mer-2-927 (peptide)
peptide: RFNPRK
In turn, B24 displayed a Binding affinity (RU) of 39 RU.

B25: 6mer-2-941 (peptide)
peptide: RDEDKR
For B25, the Binding affinity (RU) was found to be 33 RU.

B26: 6mer-2-928 (peptide)
peptide: KFCIRR
B26 displayed a Binding affinity (RU) of 28 RU.

B27: 6mer-2-946 (peptide)
peptide: KPCEKK
In turn, B27 showed a Binding affinity (RU) of 21 RU.

B28: 6mer-2-918 (peptide)
peptide: KNWMRK
With B28, the Binding affinity (RU) was 35 RU.

B29: 6mer-2-923 (peptide)
peptide: RCCAKK
Turning to B29, the Binding affinity (RU) amounted to 33 RU.

B30: 6mer-2-904 (peptide)
peptide: KCCFKK
On to B30, for which the Binding affinity (RU) stood at 30 RU.

B31: 6mer-2-924 (peptide)
peptide: RFDHKK
Take B31: the Binding affinity (RU) came to 28 RU.

B32: 6mer-2-899 (peptide)
peptide: KKMVKR
As to B32, the Binding affinity (RU) stood at 13 RU.

B33: 6mer-2-929 (peptide)
peptide: KNHMRK
The molecule B33 yielded a Binding affinity (RU) of 26 RU.

B34: 6mer-2-903 (peptide)
peptide: KKNPKK
Turning to B34, the Binding affinity (RU) is 40 RU.

B35: 6mer-2-921 (peptide)
peptide: RPKAKK
The molecule B35 came in with a Binding affinity (RU) of 22 RU.

B36: 6mer-2-906 (peptide)
peptide: KYCDKK
The molecule B36 gave a Binding affinity (RU) of 40 RU.

B37: 6mer-2-908 (peptide)
peptide: KYKKKR
As to B37, the Binding affinity (RU) was 33 RU.

B38: 6mer-2-947 (peptide)
peptide: KTNWRK
Molecule B38 showed a Binding affinity (RU) of 41 RU.

B39: 6mer-2-938 (peptide)
peptide: RIEHKR
The molecule B39 showed a Binding affinity (RU) of 40 RU.

B40: 6mer-2-943 (peptide)
peptide: KIDHRR
B40 had a Binding affinity (RU) of 41 RU.

B41: 6mer-2-942 (peptide)
peptide: KTDKRK
As for B41, the Binding affinity (RU) was 22 RU.

B42: 6mer-2-905 (peptide)
peptide: RPKERR
As to B42, the Binding affinity (RU) was 26 RU.

B43: 6mer-2-949 (peptide)
peptide: RPNARR
On to B43, for which the Binding affinity (RU) was found to be 39 RU.

B44: 6mer-2-937 (peptide)
peptide: RASHRR
As for B44, the Binding affinity (RU) was determined as 35 RU.

B45: 6mer-2-925 (peptide)
peptide: RASVKR
Consider B45, for which the Binding affinity (RU) was found to be 23 RU.

B46: 6mer-2-939 (peptide)
peptide: KKCARR
Turning to B46, the Binding affinity (RU) was 22 RU.

B47: 6mer-2-935 (peptide)
peptide: KKCNKK
B47: the Binding affinity (RU) worked out at 22 RU.

B48: 6mer-2-914 (peptide)
peptide: KDDIKK
Consider B48, for which the Binding affinity (RU) turned out to be 25 RU.

B49: 6mer-2-926 (peptide)
peptide: RPTVKR
Take B49: the Binding affinity (RU) came out at 31 RU.

B50: 6mer-2-931 (peptide)
peptide: RYCFKR
For the molecule B50, the Binding affinity (RU) came out at 29 RU.

B51: 6mer-2-910 (peptide)
peptide: RHEHRR
Molecule B51 came in with a Binding affinity (RU) of 21 RU.
